# Measured values taken from article doi:10.1101/2023.01.27.525930.
# Target: Polyketide synthase 13 (Pks13) of Mycobacterium smegmatis (Mycobacterium smegmatis) (UniProt A0R617)
# Experiment: native gel or EMSA; blue native PAGE of the protein of both sizing-column peaks; purified in β-DDM
substance,measurement,value
Polyketide synthase 13 (Pks13) of Mycobacterium smegmatis (from UniProt A0R617 1-1816) (enzyme),stoichiometry N,2
